Patent US20210236649A1 (ICONIC THERAPEUTICS, published 2021)

B1: Lipidated rabbit tissue factor (receptor, UniProt P24055 33-292, looked up)
chain: ADTTGRAYNLTWKSTNFKTILEWEPKSIDHVYTVQISTRLENWKSKCFLTAETECDLTDEVVKDVGQTYMARVLSYPARNGNTTGFPEEPPFRNSPEFTPYLDTNLGQPTIQSFEQVGTKLNVTVQDARTLVRRNGTFLSLRAVFGKDLNYTLYYWRASSTGKKTATTNTNEFLIDVDKGENYCFSVQAVIPSRKRKQRSPESLTECTSREQGRAREMFFIIGAVVVVALLIIVLSVTVYKCRKARAGPSGKESSPLNIA
notes: Amine-coupled as a proteoliposome to flow cell 2 of the Biacore chip; Also used to start thrombin generation in rabbit plasma; also called rTF; rabbit TF
B2: Human Factor VIIa (human plasma FVIIa) (enzyme, UniProt P08709 61-466, looked up)
chain: ANAFLEELRPGSLERECKEEQCSFEEAREIFKDAERTKLFWISYSDGDQCASSPCQNGGSCKDQLQSYICFCLPAFEGRNCETHKDDQLICVNENGGCEQYCSDHTGTKRSCRCHEGYSLLADGVSCTPTVEYPCGKIPILEKRNASKPQGRIVGGKVCPKGECPWQVLLLVNGAQLCGGTLINTIWVVSAAHCFDKIKNWRNLIAVLGEHDLSEHDGDEQSRRVAQVIIPSTYVPGTTNHDIALLRLHQPVVLTDHVVPLCLPERTFSERTLAFVRFSLVSGWGQLLDRGATALELMVLNVPRLMTQDCLQQSRKVGDSPNITEYMFCAGYSDGSKDSCKGDSGGPHATHYRGTWYLTGIVSWGQGCATVGHFGVYTRVSQYIEWLQKLMRSEPRPGVLLRAPFP
notes: also called hFVIIa; Human FVIIa

Experiments:
[1] = biological target: B2; assay: SPR (Biacore 3000), lipidated rabbit TF amine-coupled, analyte 0-500 nM, 37 C
Description: (§1) The GE procedure for proteoliposome immobilization (amine coupling) protocol was used to coat PS/PC/rTF on flow cell 2, and PS/PC/hTF on flow cell 3. Flow cells were equilibrated with running buffer (15 mM Hepes, 150 mM NaCl, 5 mM CaCl2, 25 mM Arginine, 0.01% Tween 80, pH7.4) at a flow rate of 5 μL/min. Kinetic analyses were performed at 37° C. by flowing consecutively increasing concentrations of each analyte […] in the running buffer (15 mM. HEPES, 150 mM NaCl, 5 mM CaCl2, 25 mM Arginine, 0.01% Tween 80, pH 7.4) over the sensor chip for 5 min followed by a 10 min dissociation period at a flow rate of 30 μL/min in parallel.
(§2) Analyte binding to the lipidated TF was determined by subtracting the RU values noted in the reference flow cell 1 from flow cell 2 and 3. Binding of analytes to the TFs was monitored in real time to obtain on (ka) and off (kd) rates. The equilibrium dissociation constant (KD) was calculated from the observed ka and kd.
(§3) Based on the saturation concentration of the analyte, binding analysis was performed using saturating analyte concentrations of 0-500 nM for rabbit TF and 0-50 nM for human TF. Chi squared (χ²) analysis was carried out between the actual sensorgram and the calculated on- and off-rates to determine the accuracy of the analysis.

[2] = biological target: B2; assay: SPR (Biacore 3000), lipidated rabbit TF on chip
Description: as §1, §2, §3

[3] = biological target: B1; assay: SPR (Biacore)
Description: as §1, §2

B1 showed a Ka [1] of 2.5e+07 M⁻¹, a Kd [1] of 40 nM and a koff [1] of 0.0014 s⁻¹. It also gave a kon [1] of 34000 M⁻¹ s⁻¹ and a Kd [2] of 39.5 nM.

With B2 the “fold lower affinity than to lipidated hTF” value [3] was about 10 fold.
